Literature values, collected in paper PMC7456198.
Where two headings read alike, the source gives them in different places.

Experiments:
[1] = biological target: GLP-1 receptor (Homo sapiens) (UniProt P43220)
[2] = biological target: GLP-1 receptor (Homo sapiens) (UniProt P43220); remark: listed apart in the source

Chain of UniProt P43220 (P43220 24-463): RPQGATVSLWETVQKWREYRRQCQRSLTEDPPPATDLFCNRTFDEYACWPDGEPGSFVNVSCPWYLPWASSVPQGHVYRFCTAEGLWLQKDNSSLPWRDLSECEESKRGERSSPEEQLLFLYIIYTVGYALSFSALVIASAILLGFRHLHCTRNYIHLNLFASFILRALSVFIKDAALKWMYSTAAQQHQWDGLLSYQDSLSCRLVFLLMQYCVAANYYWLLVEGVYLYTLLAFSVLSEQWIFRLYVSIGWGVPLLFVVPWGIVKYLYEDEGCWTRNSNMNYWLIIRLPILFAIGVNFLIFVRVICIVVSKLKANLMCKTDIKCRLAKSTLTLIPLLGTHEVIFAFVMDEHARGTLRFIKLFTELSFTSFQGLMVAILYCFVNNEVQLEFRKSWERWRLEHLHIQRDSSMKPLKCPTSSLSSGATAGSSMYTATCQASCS

Substance | Kd [1] [nM] | Kd [2] [nM]
Semaglutide (from UniProt P01275) | 0.38 | 
Liraglutide (from UniProt P01275) |  | 0.11
